Test system: prolyl 4-hydroxylase
Experiment: prolyl 4-hydroxylase activity of Triton X-100 extracts from insect cells (hydroxylation-coupled decarboxylation of 2-oxo[1-14C]glutarate)
Type: biochemical
Conditions: Triton extract, 72 h after infection
Description: The 0.2% Triton X-100 extracts of cell homogenates were analyzed for prolyl 4-hydroxylase activity with an assay based on the hydroxylation-coupled decarboxylation of 2-oxo [1-^14C] glutarate (Kivirikko et al., Methods EnzVmol. 82: 245-304 (1982)). As reported previously (Veijola et al., J. Biol. Chem. 269: 26746-26753 (1994)), a significant level of prolyl 4-hydroxylase activity was found in both Sf9 and High Five cells, the activity in High Five cells being distinctly higher than that in Sf9 cells (Table I). […]
Insect cells (Sf9 or High Five, Invitrogen) were cultured in TNM-FH medium (Sigma) supplemented with 10% fetal bovine serum (BioClear) or in a serum-free HyQ CCM3 medium (HyClone) either as monolayers or in suspension in shaker flasks at 27° C. […] The remaining cell pellet that was insoluble in the homogenization buffer was further solubilized in 1% SDS and analyzed by SDS-PAGE^1. […] Aliquots of the supernatants of the cell homogenates and the concentrated cell culture medium were analyzed by denaturing SDS-PAGE, followed by staining with Coomassie Brilliant Blue or Western blotting with an antibody to the N-propeptide of human type III procollagen.

B1: Proα1 (III) chains: Triton X-100 extract of insect cells expressing only proα1 chains of human type III procollagen (protein, UniProt P02461 24-1466, looked up)
pro-form: QQEAVEGGCSHLGQSYADRDVWKPEPCQICVCDSGSVLCDDIICDDQELDCPNPEIPFGECCAVCPQPPTAPTRPPNGQGPQGPKGDPGPPGIPGRNGDPGIPGQPGSPGSPGPPGICESCPTGPQNYSPQYDSYDVKSGVAVGGLAGYPGPAGPPGPPGPPGTSGHPGSPGSPGYQGPPGEPGQAGPSGPPGPPGAIGPSGPAGKDGESGRPGRPGERGLPGPPGIKGPAGIPGFPGMKGHRGFDGRNGEKGETGAPGLKGENGLPGENGAPGPMGPRGAPGERGRPGLPGAAGARGNDGARGSDGQPGPPGPPGTAGFPGSPGAKGEVGPAGSPGSNGAPGQRGEPGPQGHAGAQGPPGPPGINGSPGGKGEMGPAGIPGAPGLMGARGPPGPAGANGAPGLRGGAGEPGKNGAKGEPGPRGERGEAGIPGVPGAKGEDGKDGSPGEPGANGLPGAAGERGAPGFRGPAGPNGIPGEKGPAGERGAPGPAGPRGAAGEPGRDGVPGGPGMRGMPGSPGGPGSDGKPGPPGSQGESGRPGPPGPSGPRGQPGVMGFPGPKGNDGAPGKNGERGGPGGPGPQGPPGKNGETGPQGPPGPTGPGGDKGDTGPPGPQGLQGLPGTGGPPGENGKPGEPGPKGDAGAPGAPGGKGDAGAPGERGPPGLAGAPGLRGGAGPPGPEGGKGAAGPPGPPGAAGTPGLQGMPGERGGLGSPGPKGDKGEPGGPGADGVPGKDGPRGPTGPIGPPGPAGQPGDKGEGGAPGLPGIAGPRGSPGERGETGPPGPAGFPGAPGQNGEPGGKGERGAPGEKGEGGPPGVAGPPGGSGPAGPPGPQGVKGERGSPGGPGAAGFPGARGLPGPPGSNGNPGPPGPSGSPGKDGPPGPAGNTGAPGSPGVSGPKGDAGQPGEKGSPGAQGPPGAPGPLGIAGITGARGLAGPPGMPGPRGSPGPQGVKGESGKPGANGLSGERGPPGPQGLPGLAGTAGEPGRDGNPGSDGLPGRDGSPGGKGDRGENGSPGAPGAPGHPGPPGPVGPAGKSGDRGESGPAGPAGAPGPAGSRGAPGPQGPRGDKGETGERGAAGIKGHRGFPGNPGAPGSPGPAGQQGAIGSPGPAGPRGPVGPSGPPGKDGTSGHPGPIGPPGPRGNRGERGSEGSPGHPGQPGPPGPPGAPGPCCGGVGAAAIAGIGGEKAGGFAPYYGDEPMDFKINTDEIMTSLKSVNGQIESLISPDGSRKNPARNCRDLKFCHPELKSGEYWVDPNQGCKLDAIKVFCNMETGETCISANPLNVPRKHWWTDSSAEKKHVWFGESMDGGFQFSYGNPELPEDVLDVHLAFLRLLSSRASQNITYHCKNSIAYMDQASGNVKKALKLMGSNEGEFKAEGNSKFTYTVLEDGCTKHTGEWSKTVFEYRTRKAVRLPIVDIAPYDIGGPDQEFGVDVGPVCFL
modifications: pro-form
notes: Triton X-100 extract of insect cells expressing only proα1 chains of human type III procollagen
For B1, the “Prolyl 4-hydroxylase activity” value (High Five cells, mean of duplicates in three experiments) was 500 dpm/10 μl and the “Prolyl 4-hydroxylase activity” value (Sf9 cells, mean of duplicates in one experiment) was 60 dpm/10 μl.
